The values below come from the NTF2 design screens of Basanta et al. (2020).

The data set can be described thus: protease stability score; higher = more stable; yeast display proteolysis, trypsin and chymotrypsin.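 Note: log10 excess protease needed over predicted unfolded state with 0 meaning unfolded.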
“DEDIRRHVKEFIEALRTGNEDQLRTLADKNVRFEYGDKEIHGRETYAKHVKKLKEESSIEIKDYKVTAQGNTVSAKIRQVVNHNGKPQHHVVILQAVFHNGKLKEMRTKDDG”: the protease stability score was -0.26. With “DEDITEAVRRLEKAREDGDPNKVRELLPEDARAQYGDKTYHGRDEVAKYRETEMKQMTVQMNIRSVENHNGRADIEFEVTREHNGKPTHDHNRATILAHNGKIKVIEIHSTK”, the protease stability score was -0.422. Regarding “DEDKAKEFMRKALHILLEGDPDKFVRMADKDAHIQVGEHTVHGREQVRKFIQELQDKVDHNDVVDYEVRPNHANIEFQMNVNGRTVRMRVRLEFKNGKFKRATFDPDDVRKLHT”, the protease stability score was determined as 1.33. “DEDKARRLAEKLFEYMMKGKKDEAKKFLDPDVRYEYVDETVEGPKVAEHVVRKIRKLGMKVETKEMEIRGDKARAVFVYRNGDNQVETTVEAQYEGDKLKEVRVELTDEVKKQVTQG” registered a protease stability score of 0.804. Regarding “DEDKARRVMEKLFKIVKNGNKDEMKKMGKPNVQYTYVDKRYEGEEAAKKDVEIDKEVGARVQERELEVKGDTVKAVFQYQQGDTTVQTHVEAHYEGDKVKEVKVELTEEVQKIVEQG”, the protease stability score was -0.248. Consider “DEDKEAEKLVKEMQENQRQGDEEKWANLFDEDAHFRIGDKHLHGRQDLQDNVRKWRHNYDHLSVRMKDLKHDGDKARLHVVITQRHNGKNDSMTVDIVIVKQNGRVRIKNFQAP”, for which the protease stability score amounted to 0.513. Sequence “DEDKEAKKAIDDWKKIIDTNDEDQARRMFDPNAKVTIGDKTYHGREQASTLFHQLMKRFDHMSFHVDKVRVHNGQVDAVVTARFNHNGRTEEMRLRFRFDDHNGQLVIVQIDWE” had a protease stability score of 1.35. “DEDKEAREIAKKIARDLNRGNQEEVVKQFDPNVRLNIGDKEVTGREEVRKEVKKVQQKFDHADIRIRDYRSEGDSANLDFYLTLTHNGRHDKRRWTLHLENHNGRYIVKHVQHN” registered a protease stability score of 0.028.

The sequence “DEDKEDRVRTWVEAQKTGDPDKAKENADPNVRVEYGDKTIHGMSEIVKHIKREKHESRRTIDSYSVSASGDHITVRIDMHVKHDGQPRRKDYTETIVIRNGKIRHIKRRDDK” displayed a protease stability score of 0.36.

Regarding “DEDKEDRVVKTFLTAVRTGDPHTARNMLDENARVHIGEKNFHGKERASEAIKEFRDQVDEVHIRTIKVRGDRFNIDMTLHFNGKNADLTVNVRVHNGKIQDVQFDPDQMQHLQG”, the protease stability score came to 0.86. On to “DEDKEIRKFIKNNKDILKNGDPREYVRQMDPNAKMQYGDKQVRGNDQLERHLHTKLKRIDSQSVDFKDVDLKGDKIRLRARRTYQFNGRTSSEEFVVVMTFTNGQARVHKINYK”, for which the protease stability score turned out to be 0.103.

“DEDKEKKINKDIADAWQNGDEQQMQKQIPPEVRIQVGDKTVHGREHIHKWMRRWRERVDHLQLKDMTAHNGNMRIKFVIRHNGRQDVRQVHIQVDNGTVHTASFDTE” registered a protease stability score of 0.43. For “DEDKEQELAHHIISIIQTGNPDSFMNMADPNAKVNIGDTRLRGREQIVHFYREQFRQADNREVKDVRAHNGRITIDAVRNINGRNERYVVDIQIENGKATEINVRHT”, the protease stability score is 0.045. The sequence “DEDKHAHELAKKLQKVWEEGAEEKQQELVDEDDRKNIGEHTYNGEEQLRRDLDKLRKDADHVDMKLKQIRFQGDKARIDMVVSQTVNGKRNTDRFTVEARLNNGRLRIKQVTKN” came in with a protease stability score of 0.813.

Sequence “DEDKHAKRVMENLTRAMNQGDKRRAADMVDPNVRLVIGDKEYHGRHQFRRAIKELVDRADHIEIDVRDVKTKNGRVQAHAHVEATYNGKKNDFKMVAEVEVQGENVVVHQITLK” registered a protease stability score of 1.13. Consider “DEDKHAQDHMDQLTRLRKHGNFEKLANMADEDVEVHYGDKQVHGREQVVKTIKSEADDVDHFDVKVQEYHVQGDHIHVVNEFTLERNGQYRTDEQQFTVQITNGSIRIKNMTKK”, for which the protease stability score is -0.475. For “DEDKHVHRAFEEMLTVMEKGNEDEVKRLVDKDVRVHIGDKSYRGRTNVAKQIVDWARRADHIEIEVTEIDIQGDQVTMRATAHATHNGKTQSYDFTIILRIENGRAVIHSWHVS”, the protease stability score is 0.923.

Regarding “DEDKKADEFMKRWIDNLQNGNEDELRKLIDPNARLDIGDKTLHGREDIVHHLSETLKRVDHLEIRVEHIEVQGDKATFVYHITMRTNGRTHSSEVQFEAEEHNGNLIIKSIHER”, the protease stability score turned out to be 1.57. Regarding “DEDKKKHDLIHTFLTLQHNGDFKQLARMFDPNAKVRVGDKDIRGREQIEKMFEKVRESVDRVSVSLTHMDNHGDKVRMEARVTQHVNGRNHDFTITITFRQVGDKVRASHQSVS”, the protease stability score was 0.584. In turn, “DEDKLDHLARKAAEIMVQGDPDKFRDMFDPNAKLRYGDKELRGREEADKAIEEMQKRVDSSDVEDITAHNGRANAVLVLNHNGRHKRFVLVVDVRNGRATKASMHDD” showed a protease stability score of -0.062. Consider “DEDKLKSMFRQLQRVLTQGNPHDARKLFDEDAHLVVGDKRWTGREEVVKFIEELTRRYDHLEIKSFSVSNGRMVVNASAHVNGKSIDIHYIMEVDNGRVKYLRVDVRNEEELKKVLS”, for which the protease stability score turned out to be 1.27.

“DEDKLRDVAKRLQEIIHTNNPDDLNKQADKDARVQVGDKEYKGRRDVYKFMETLKHQVDQIEIHDVKFDGDHAHFHVMMNVNGKKVEVHIIMEVENGKVKELNFDPKNMEQLDK” gave a protease stability score of 0.708. For “DEDKLREVAEEMNKGDPQTLADNADKDARLRVGDREWHGREDVEKFNNQWRREVDHVDIERVTVSPNRVEAVYVVTVNGKRIHAKFEAKVHDGRIKEMTVSVTNPEQQKDLERQVD” the value was -0.1; for “DEDKLTDKAHQIIRALETGDPDQIRNLAPPNVRFDYGDKRYHGREKAEERAKRERENIDHMEIKDFDVQGNKIQIRAVVEHNGRSREFVVTFEQNNGTLRFARMQSK”, -0.342; for “DEDKLTRVEDFLRLQEQNNEDELLKQMDPNATQRYGNKHVHGSSEVKRFLHRLHREMRIRVEMKSVEVHGDEVVMKADFSKTFNGRPETLTATVVFKVHNGRIQKIIFEERK”, 1.41. “DEDKMKEIAKKFMDYLVNGHADEVRKMGKEGVRVHVGDTTIQGPDQLKEYVKKFKDQGVHNEYKEEEVKGDTITMHTKAQLGNAEVDFEVHYVVKGDKVEKFEVKTDKKQQEKFKKS” yielded a protease stability score of -0.352. Turning to “DEDKMKEVIEKVLRMLETGDPHEASKLADENAKIRYGDKTYHGRDQVHELLDRITKRVDHVEIKDFSVQGEQLVLHFVLNINGKNKEVVLVATVHNGRIKSLHVDDQ”, the protease stability score was 1.26. As to “DEDKMKSILTVAQEGDPDEMKRQADEDARVHIGDKRVHGRESFQKAMDEYTKAVDSQHVKRVSSRENRVKVTAVLRFNGSHIDVVVQIRAHNGRIEEIIFRVTDPKQKTTLKKIIS”, the protease stability score is 0.053. Consider “DEDKMLKIAQEMAEAVVNGNVEQMKKQAHEGVQVHVGDEEVHGPDQLEEYVKKFKDQGVEVHYKETEHKGDTVTLKTTAVLGDAQVEFEAHYVVKGDKLQRFEVKLNKEQLKDFRKS”, for which the protease stability score worked out at 0.242.

Sequence “DEDKMLKVAKEAVEAITKGNAEQIKKVGKEGVQVTFGDEKYHGPDQLEEYVKKVKDQGNHIEYKEQEFKGDTATVKTEAEKGDQKVTFEVHYQVKGNKLDRLEVRFDKEQQKKFEQS” returned a protease stability score of -0.256. The result for “DEDKNKEAVERFLHNLENGDWQSLADLADKNAKVQIGDETVSGRESAQNELRKFAERVDHVDYHDMTVQGDKFEVVFQEDHNGRKRKVVAEFRVKNGRFKHVVFDDG” reads -0.008; that for “DEDKNKKFADKVVRALEQNNEEEMNELFPPDARVEVGDKQIHGREEIQKYMQKIRDQVDHVEVKSMEVDGDKITVHVTVHHNGTSRTVVFIFHVRNGRLTEMKVKTG”, 0.04. In turn, “DEDKNKKRAEEWQRILEDNDEERFSKLADKDVRFVIGDKEVHGSEQAETWIRTIKHRVDHIQLEDMKVNGNKIVIDLVMVHNGRKHRYKVVMEFHNGSVKYVQYNDS” gave a protease stability score of -0.06. For “DEDKNNRDMQDMIRAVITNDEKRVQELMDPNASVTVGDHTFKGTEAVTHLITDLRNHIDHVELNSVSVHNGKAKADMVFTVNGQHVKIEMNAQAHNGKVTQFDVSARSEEEHKKYKQ” the value was -0.542; for “DEDKQAKEMMKRFVHMMQEGDPSEAKRLFDKNARLVVGDKRFHGQHEASKFAEEIKKRYDKVHVELKDLKVHGDKVDAKAKVVLNDNGQKDTHEVVITALFHNGRIKVQEVRVQ”, 0.983. With “DEDKQHEFATRNVKAWETNDENQMRRLMDPNAKVRIGDKEYRGREEILRLLNEFKKRVDHVQVKSYDVHNGHVHINIVASVNGQRHEMHVKFQFHNGEIVKMQIDDS”, the protease stability score was 0.203. In turn, “DEDKQLHELFERLVEAIRNGDPKKYQDNADENAKIRVGDKEYTGREQLEKLVEDIRKDVDHLEVDFKRVKVEGDKATAIVKVRANFNGKNDDTMYQYQAKIHGDKIHVVNVQQS” registered a protease stability score of 0.165. In the case of “DEDKQRKRAETAAHIVENNNPDEQNKLADKDVTMQVGETQVHGREDLKELMEEMREQFDHIRVRSFDAHGNKVRLRFHAEYNGVTLEFVIINNYHNGKVQSINLRVTNPEEFRKAQG”, the protease stability score came out at 0.122. For “DEDKQRKTADEIQKVIKQGDEKKAEDLFDENAKLSIGDKFYRGKEDFKRWFRSLRDRIDHFQVKDLEVDGERAEFVVVFHVNGKNVEMVIEIHVHNGKVKHARVNPEDERKLNT” the value was 1.05; for “DEDKRAREAAETAIQALRTGDPDKMVKLMDPNARVRVGDKTVTGHEEIRRWMQTIQDQIDHADITVESLTVNNGRAELIFVANFDRNGRTERTRYNLEIDVRGDKVQAHQMDHG”, 1.22; for “DEDKRARKFADTMRKVLEKGNEEEFRDMMDKDVSFKYGDKEVRGREEAAKRLKDTVKRVDRVEVNIKSIHVQGDKVSIDMLIVNDHNGKHHHRRLVFYAKDDNGKLVVVKVTER”, 1.86. On to “DEDKRKLVEDLIEAEERGDNERIKELADKDAEYIYGDKTVEGREEHAKEVKKKHDQQRVKITSMRINAHGDKIQVSIEYTVEDNGQPRRARVHIKFVIHNGRFQSMHIQDHR”, for which the protease stability score was -0.253.

“DEDKTAEQVAETIQKIWEKGDPTKMEKLFDPNASINVGEKTVKGREKIFTEAKKLMKEADHVRVTVQHVEARGDHVIVRFTFTLHVNGKNRKHEVEINAEDKNGHLRARDIKMR” had a protease stability score of 0.351. Sequence “DEDKTMRELIRRLDKNLKEGDPSKAREQADKDARANIGEKRVTGRKRLDEEVKTLLDSYDHIRVHLKEVRVENGSAVARVDYHYDQNGQEKSKEVILHARFQGDRLTLEQMTMP” gave a protease stability score of 0.043. The sequence “DEDKVAHDMMKEIQSIFERGDRDTWRRMFDPNAEMHVGDKRIHGREHFSRWAQRSVERVDHHEMHVRSVSVDNGTITVSAVEVENVNGHEDKRRFVVRANLEGDKVQWKRRSEQ” yielded a protease stability score of 0.096. In the case of “DEDKVERLKHMWKVVEEGDEDKLREQFDKDASVTVGDKVLTGRENLARHWKRIRDELRFSMTMEKVEVHNGVVDIRVTATEDNNGRPQHKVADVRVDMHNGRIKVLEVDETK”, the protease stability score turned out to be 0.154.

“DEDKVKKIAEELWKAISNGDEERMKKLMRDDVRAQVGDTEVHGREHVVHQLATFAKQVDHLTMETYDIRGNHVTFRFQARVNGKRVQIDMVIHVSNGRIKELRIDPKQVKELES” returned a protease stability score of 1.22.
